Square brackets hold non-standard residues; d marks the D form. Side chains are listed from the residue outwards. Ends that are not written are not given here. maleimide = maleimide: 4-arm PEG5k maleimide reacting with the C-terminal Cys thiol
Columns and labels:
[1] = DLS analysis of size in solution; assay type: physicochemical
Protocol: AHP‐DRI‐12 with additional Cys residue at the C‐terminal and 4‐arm PEG5k maleimide was dissolved in PBS (0.1 M, pH = 8) at a molar ratio of 8:1. The reaction mixture was stirred for 4 h at room temperature and then dialyzed in a Slide‐A‐Lyzer dialysis cassette (Thermo Fisher Scientific, Shanghai, China) (MWCO: 3500 Da) against water. The dialysate containing the pure product was lyophilized. The products were confirmed by nuclear magnetic resonance (^1H NMR) spectra using a Bruker Avance 500 (500 MHz) spectrometer (Beijing, China).

DR6 protein = molecular target: T1, DR6 protein (Homo sapiens, UniProt O75509); test: KD of DR6-targeting peptides for binding to DR6 protein by MST
T1 construct: purchased Sino Biology, Inc. (Shanghai, China)
T1 sequence (O75509 42-655): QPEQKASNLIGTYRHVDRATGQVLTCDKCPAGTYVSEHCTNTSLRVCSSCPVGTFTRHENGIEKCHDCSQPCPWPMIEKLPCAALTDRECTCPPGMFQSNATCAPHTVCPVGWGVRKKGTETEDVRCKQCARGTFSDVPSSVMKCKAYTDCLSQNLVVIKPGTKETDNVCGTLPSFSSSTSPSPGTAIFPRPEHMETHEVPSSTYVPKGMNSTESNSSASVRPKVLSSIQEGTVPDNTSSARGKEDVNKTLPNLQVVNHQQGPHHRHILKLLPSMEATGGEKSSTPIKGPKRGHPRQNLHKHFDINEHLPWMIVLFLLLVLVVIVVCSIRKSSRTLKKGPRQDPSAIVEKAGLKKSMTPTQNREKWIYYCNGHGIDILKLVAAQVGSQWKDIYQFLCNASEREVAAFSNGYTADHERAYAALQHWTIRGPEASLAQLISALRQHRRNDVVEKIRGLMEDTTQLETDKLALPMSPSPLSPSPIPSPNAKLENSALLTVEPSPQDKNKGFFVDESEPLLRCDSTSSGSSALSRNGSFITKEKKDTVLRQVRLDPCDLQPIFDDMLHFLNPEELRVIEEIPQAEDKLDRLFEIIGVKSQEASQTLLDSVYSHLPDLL
Protocol: For labeling DR6 protein with Red‐tris‐NTA second‐generation dye, equal volume of DR6 protein (200 × 10^–9 M) and dye (100 × 10^–9 M) were mixed. The solution was incubated for 30 min at room temperature and centrifuged for 10 min at 4 ℃ and 15 000 × g. The DR6 protein was labeled and ready for the binding assay. Prepare 25 µL of the DR6‐targeting peptides at 20 × 10^–6 M and add 10 µL of the PBS‐T into the PCR tubes 2–12. Transfer 20 µL DR6‐targeting peptides into the PCR tube 1 and then transfer 10 µL of the DR6‐targeting peptides from tube 1 to tube 2 with a pipette and mix by pipetting up and down multiple times. Transfer 10 µL to tube 3 and mix. Repeat the procedure for tube 4–12. Add 10 µL of labeled protein to each tube (1–12) and mix by pipetting. The final DR6 protein concentration was 50× 10^−9 M. Load the capillaries and measure the samples by NanoTemper Monolith NT.015.^[ ^51 , ^52 ^]

[2] = Peptides stability in 25% rat serum; assay type: in vitro ADME; details: FITC-labeled peptides, 25% fresh rat serum, 37 °C, 0, 4, 8, 24, 48, 96 h; acetonitrile/0.1% TFA precipitation; microplate reader; n = 3
Protocol: FITC‐labeled peptides were added into 25% rat serum and incubated at 37 °C. After incubation at 0, 4, 8, 24, 48, 96 h, 100 µL solution was collected and acetonitrile (containing 0.1% TFA) was added to precipitate the protein in the serum. The serum samples were incubated at 4 °C for 20 min and then centrifuged at 12 000 rpm for 10 min. A total of 20 µL supernatant was measured by a microplate reader.

HUVECs = test: MTT cytotoxicity assay; assay type: cell-based, human; details: up to 10 × 10^−6 M, 24, 48, 72 h, n = 3
Protocol: To evaluate the cytotoxicity of DR6‐targeting peptides, MTT assay was conducted. Briefly, 4 × 10^3 HUVECs were added in 96‐well plates and grown overnight before incubating with AHP‐DRI‐12 and PEG‐tAHP‐DRI (0.1 × 10^–6, 1.0 × 10^–6, 10 ×10^–6 M AHP‐DRI‐12). After incubating for 24, 48, and 72 h, 100 µL of 0.5 mg mL^–1 MTT was added to each well, and the plates were incubated at 37 °C for 4 h. After the removal of the supernatant, the precipitate was dissolved in 150 µL dimethyl sulfoxide, and the absorbance was measured at 490 nm using a microplate reader.

[3] = system: B16F10, 4T1, and CT26 lung metastasis models; test: In vivo anti-metastasis assay, lung metastasis models; design: species or system mice
Protocol: 2 × 10^5 GFP‐B16F10 cells, 2 × 10^5 4T1, or 2 × 10^5 CT26 in 100 µL PBS were injected to the lateral tail vein of mice, respectively. The mice were intravenously injected with saline, AHP‐DRI‐12, and PEG‐tAHP‐DRI (0.2 µg g^–1 AHP‐DRI‐12) shortly before and 24 h after injection of B16F10. Each formulation was administered every 2 days for a total of seven times. After 15 days, mice were sacrificed and perfused with PBS and 4% paraformaldehyde. The hearts, livers, spleens, lungs, and kidneys were collected for H&E staining and immunohistochemistry analysis. Lung metastases were analyzed by quantitation of GFP and metastases nodes.

[4] = In vivo safety analysis in healthy mice; design: species or system C57BL/6 mice; details: intravenous
Protocol: For evaluating the toxicity of peptides in vivo, 6 week old healthy mice were intravenously injected with AHP‐DRI‐12 and PEG‐tAHP‐DRI (0.2 µg g^–1 AHP‐DRI‐12). After 2 and 15 days, mice were sacrificed and serum samples were collected for the biochemical analysis (ALT, AST, BRU, and URE). Tissue samples from various organs were collected for tissue sections. The tissue sections were analyzed by H&E staining and immunohistochemistry analysis.

[5] = B16F10 tumor-bearing mice, 15 days
[6] = healthy C57BL/6 mice, day 2 or 15

Substance: PEG-tAHP-DRI: tetra-(D-retro-inverso isomer of AHP-12) substitued 4-arm PEG5k ([dP][dT][dT][dA][dD][dI][dT]C([maleimide-4‑arm PEG5k]); also: four peptides on one 4-arm PEG5k)
- size distribution in solution (hydration dynamic radius, DLS) [1]: ≈ 10 nm
- Kd (DR6 protein; RED-tris-NTA labeled DR6 protein, final 50 × 10^−9 M, PBS-T, main text and Figure 2B-D, read-out: KD): ~50 nM
- binding affinity to DR6 relative to AHP-DRI-12 (DR6 protein; from KD values): almost fourfold greater binding affinity
- degradation in 25% rat serum (proteolytic stability) [2]: obviously enhanced proteolytic resistance
- HUVECs cell viability (HUVECs): remained essentially unchanged
- necroptosis in lungs, p-RIPK1 immunohistochemical analysis [3, 5]: dramatic decrease of necroptosis in lungs
- pulmonary vessel integrity, CD31 staining [3, 5]: remained relatively intact and orderly
- expression level of GFP mRNA in lungs ([3]; GFP-B16F10 model, compared with vehicle-treated and AHP-DRI-12-treated mice, n = 6): less expression level of GFP mRNA in lungs
- pulmonary metastasis nodules ([3]; intravenous, 0.2 µg g^–1 AHP-DRI-12, every 2 days, seven times, lungs after 15 days): least amount of pulmonary metastasis nodules
- metastatic loci in lungs, H&E staining ([3]; intravenous, 0.2 µg g^–1 AHP-DRI-12, 15 days, n = 6): less and smaller metastatic loci
- apoptotic cells in tissues, TUNEL staining [4, 6]: no obvious increase in apoptotic cells
- damage to vessels, CD31 staining [4, 6]: could not cause damage to the vessels
- downstream signaling pathway of DR6 (p-RIPK1, p-IκB-α, caspase 8 staining) [4, 6]: could not be impacted
- damage to liver or kidney, blood biochemical indexes (ALT, AST, BRU, URE) ([4]; healthy mice, 0.2 µg g^–1 AHP-DRI-12, sacrificed day 2 or day 15): could not cause any damage to liver or kidney
